From patent US20240391961A1
Read-outs that look alike come from different tables or passages of the source.

How the values were obtained:
[1] = molecular target: 14-3-3ζ nhpSer58 with a FLAG tag at its N-terminus (Homo sapiens (Human)) (UniProt P63104)
[2] = molecular target: 14-3-3ζ nhpSer58 with a FLAG tag at its N-terminus (Homo sapiens (Human)) (UniProt P63104); experiment: pulldown from HEK293 lysate, MS; nhpSer58 bait vs WT bait (reference)

Chain of 14-3-3ζ nhpSer58 with a FLAG tag at its N-terminus (Homo sapiens (Human)) (P63104 whole entry): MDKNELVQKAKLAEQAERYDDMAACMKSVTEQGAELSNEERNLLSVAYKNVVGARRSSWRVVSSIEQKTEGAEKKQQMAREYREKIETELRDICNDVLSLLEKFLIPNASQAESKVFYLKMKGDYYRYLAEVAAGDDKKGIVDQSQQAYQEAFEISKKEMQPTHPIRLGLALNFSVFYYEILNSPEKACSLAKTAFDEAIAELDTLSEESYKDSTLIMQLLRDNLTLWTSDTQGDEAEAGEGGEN

Substance | FC [1] [fold] | also measured
striatin [OS = Homo sapiens] (from UniProt O43815 1-780) | 4.33 | –
Apoptosis-stimulating of p53 protein 2 [OS = Homo sapiens] (from UniProt Q13625 1-1128) | 6.29 | –
Keratin, type I cytoskeletal 13 [OS = Homo sapiens] (from UniProt P13646 1-458) | 8.89 | –
Keratin, type II cytoskeletal 78 [OS = Homo sapiens] (from UniProt Q8N1N4 1-520) | 6.98 | –
BRCA2-interacting transcriptional repressor EMSY [OS = Homo sapiens] (from UniProt Q7Z589 1-1322) | 9.69 | –
Cytochrome c oxidase subunit 5A, mitochondrial [OS = Homo sapiens] (from UniProt P20674 42-150) | 0.223 | –
exosome complex exonuclease RRP44 [OS = Homo sapiens] (from UniProt Q9Y2L1 1-958) | 5.09 | –
HAUS augmin-like complex subunit 5 [OS = Homo sapiens] (from UniProt O94927 1-633) | 7.34 | –
Cleavage stimulation factor subunit 3 [OS = Homo sapiens] (from UniProt Q12996 2-717) | 8.68 | –
Exportin-1 [OS = Homo sapiens] (from UniProt O14980 1-1071) | 7.95 | –
Protein cereblon [OS = Homo sapiens] (from UniProt Q96SW2 1-442) | 8.91 | –
Melanoma-associated antigen D2 [OS = Homo sapiens] (from UniProt Q9UNF1 2-606) | 63.1 | –
DNA methyltransferase 1-associated protein 1 [OS = Homo sapiens] (from UniProt Q9NPF5 1-467) | 6.86 | –
Arginase-1 [OS = Homo sapiens] (from UniProt P05089 1-322) | 6.22 | –
nuclear pore complex protein Nup98-Nup96 [OS = Homo sapiens] (from UniProt P52948 1-1817) | 5.93 | –
Junction plakoglobin [OS = Homo sapiens] (from UniProt P14923 1-745) | 4.8 | –
Platelet-activating factor acetylhydrolase IB subunit alpha [OS = Homo sapiens] (from UniProt P43034 1-410) | 7.47 | –
E3 ubiquitin-protein ligase MYCBP2 [OS = Homo sapiens] (from UniProt O75592 1-4678) | 0.234 | –
Intraflagellar transport protein 81 homolog [OS = Homo sapiens] (from UniProt Q8WYA0 2-676) | 21.9 | –
opioid growth factor receptor [OS = Homo sapiens] (from UniProt Q9NZT2 1-677) | 7.06 | –

Substance | FC [1] [fold] | also measured
Serpin B4 [OS = Homo sapiens] (from UniProt P48594 1-390) | 36.3 | –
Neurofibromin [OS = Homo sapiens] (from UniProt P21359 2-2839) | 0.165 | –
Protein disulfide-isomerase A6 [OS = Homo sapiens] (from UniProt Q15084 20-440) | 38.4 | –
Protein S100-A7 [OS = Homo sapiens] (from UniProt P31151 2-101) | 64.8 | –
Translin-associated protein X [OS = Homo sapiens] (from UniProt Q99598 1-290) | 6.28 | –
Cyclin-dependent kinase 2-associated protein 1 [OS = Homo sapiens] (from UniProt O14519 1-115) | 4.42 | –
SAGA-associated factor 29 [OS = Homo sapiens] (from UniProt Q96ES7 1-293) | 9.02 | –
Acyl-CoA dehydrogenase family member 10 [OS = Homo sapiens] (from UniProt Q6JQN1 1-1059) | 4.04 | –
Ketosamine-3-kinase [OS = Homo sapiens] (from UniProt Q9HA64 1-309) | 9.56 | –
Centrosomal protein of 55 kDa [OS = Homo sapiens] (from UniProt Q53EZ4 1-464) | 4.5 | –
Annexin A2 [OS = Homo sapiens] (from UniProt P07355 2-339) | 24.6 | –
A-kinase anchor protein 9 [OS = Homo sapiens], Q99996 1-3907 | 0.0561 | –
Protein S100-A9 [OS = Homo sapiens] (from UniProt P06702 1-114) | 4.73 | –
Desmoglein-1 [OS = Homo sapiens] (from UniProt Q02413 50-1049) | 7.08 | –
14-3-3 protein zeta/delta [OS = Homo sapiens] (from UniProt P63104 1-245) | – | FC [2]: 0.0821 fold; Log2(FC) [2]: -3.61 log2
Intraflagellar transport protein 22 homolog [OS = Homo sapiens] (from UniProt Q9H7X7 1-185) | 16.3 | –
Pre-mRNA-splicing factor ATP-dependent RNA helicase DHX15 [OS = Homo sapiens] (from UniProt O43143 1-795) | 6.21 | –
Talin-1 [OS = Homo sapiens] (from UniProt Q9Y490 1-2541) | 12.7 | –
Polyadenylate-binding protein 1 [OS = Homo sapiens] (from UniProt P11940 1-636) | 0.182 | –
F-box only protein 50 [OS = Homo sapiens] (from UniProt Q6ZVX7 1-275) | 4.55 | –
